# Assay results reported in US20190106487A1 (Sanofi, published 2019).
# Substitutions are numbered along the chain they refer to.
# T1: mIL1RAcP-Fc (murine, UniProt Q61730 21-359)
# T1 construct: also called P013_04; P013-04
# T1 sequence (looked up): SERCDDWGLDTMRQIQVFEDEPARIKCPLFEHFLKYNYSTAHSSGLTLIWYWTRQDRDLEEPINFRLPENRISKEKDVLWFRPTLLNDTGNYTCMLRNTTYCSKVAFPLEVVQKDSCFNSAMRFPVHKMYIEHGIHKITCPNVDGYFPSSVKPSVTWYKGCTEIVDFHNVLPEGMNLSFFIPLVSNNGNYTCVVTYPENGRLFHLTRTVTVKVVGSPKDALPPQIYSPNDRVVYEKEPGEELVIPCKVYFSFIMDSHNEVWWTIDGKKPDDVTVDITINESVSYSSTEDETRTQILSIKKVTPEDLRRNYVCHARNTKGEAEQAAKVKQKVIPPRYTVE
# T2: rhIL-1RAcP/Fc Chimera (human, UniProt Q9NPH3 21-359)
# T2 construct: also called P013_03; P013-03
# T2 sequence (looked up): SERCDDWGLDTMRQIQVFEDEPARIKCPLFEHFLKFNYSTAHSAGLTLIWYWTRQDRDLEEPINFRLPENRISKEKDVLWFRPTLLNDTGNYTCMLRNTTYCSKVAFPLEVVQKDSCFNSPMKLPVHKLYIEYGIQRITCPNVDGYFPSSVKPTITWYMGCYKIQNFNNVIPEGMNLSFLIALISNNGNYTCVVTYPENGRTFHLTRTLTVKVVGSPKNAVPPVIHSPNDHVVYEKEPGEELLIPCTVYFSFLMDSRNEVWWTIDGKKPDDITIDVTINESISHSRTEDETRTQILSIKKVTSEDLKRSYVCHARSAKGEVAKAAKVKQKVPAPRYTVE
# T3: human IL-1RAcP on 293T/17-FR cells (human, UniProt Q9NPH3 21-570)
# T3 sequence (looked up): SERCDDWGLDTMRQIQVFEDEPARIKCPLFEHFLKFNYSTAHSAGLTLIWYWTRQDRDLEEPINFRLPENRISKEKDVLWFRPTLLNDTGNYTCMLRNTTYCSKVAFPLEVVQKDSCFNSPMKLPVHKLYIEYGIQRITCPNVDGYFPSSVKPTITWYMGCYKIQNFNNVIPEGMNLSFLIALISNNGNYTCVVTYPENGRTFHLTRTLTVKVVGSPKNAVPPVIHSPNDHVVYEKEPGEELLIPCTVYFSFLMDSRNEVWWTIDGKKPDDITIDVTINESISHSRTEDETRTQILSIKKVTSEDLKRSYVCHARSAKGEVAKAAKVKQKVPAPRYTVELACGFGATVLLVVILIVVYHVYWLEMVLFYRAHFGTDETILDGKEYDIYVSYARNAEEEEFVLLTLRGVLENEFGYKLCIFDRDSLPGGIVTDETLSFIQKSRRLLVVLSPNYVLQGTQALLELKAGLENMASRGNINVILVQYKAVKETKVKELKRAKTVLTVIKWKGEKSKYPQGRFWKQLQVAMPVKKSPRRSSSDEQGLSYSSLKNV
# B1: P013.S.01.B.C03 (antibody, V domains shown)
# VH: QSVEESGGRLVTPGTPLTLTCTVSGIDLSNYAMSWVRQAPGKGLEWIGSVISGGSTYYATWARGRFTISKSSTTVDLKMTSLTTEDTATYFCARGCPGYNGDKYTFDLWGPGTLVTVSS
# VL: AFEMTQTPSSVSEPVGGTVTIKCQASQSIYNYLSWYQQKPGQRPKLLIYRASTLASGVPSRFKGSGSGTEFTLTISGVESADAATYYCQQGATSYDIENPFGGGTEVVVK
# notes: rabbit monoclonal antibody; also called P013.A.00133.D11
# B2: P013.S.02.B.E04 (antibody, V domains shown)
# VH: QSLEESGGDLVKPGASLTLTCTASGFSLSSGGMSWVRQAPGKGLGWIGYINTGSGSTYYASWVNGRFTISKTSSTTVSLQMTSLTAADTATYFCAGGLPSDLWGPGTLVTVSS
# VL: DIVMTQTPSSVEAAVGGTVTIKCQASQSINSRLAWYQQKPGQPPKLLIYSASTLASGVSSRFKGSGSGTEFTLTISDLESADGATYYCLSHYLTSSSSYGDAFGGGTEVVVK
# notes: rabbit monoclonal antibody; also called P013.A.00088.A02
# B3: P013.S.02.B.G02 (antibody, V domains shown)
# VH: B2 VH with S34T, G45E, S56R, V63A, N64K, T68I
# VL: DIVMTQTPSSVEAAVGGTVTIKCQASQSINSRLAWYQQKPGQPPKLLIYDASTLASGVSSRFSGSGTEFTLTISDLESADGATYYCLSHYLTSSSSYGNAFGGGTEVVVK
# notes: rabbit monoclonal antibody; also called P013.A.00014.C07
# B4: P013.S.02.B.D05 (antibody, V domains shown)
# VH: QQQLVESGGGLVKPGASLTLTCKASGFSFSSGYYMCWVRQAPGKGLEWIACIGMGSGKTYYASWAKGRFTISKTSSTTVTLQMTSLTAADTATYFCARKDGSGNEHYNLWGPGTLVTVSS
# VL: DIVMTQTPASVEAAVGGTVTIRCQASQSISSYLAWYQRKPGQPPKVLIYKASTLASGVSSRFKGSGSGTEYTLTISDLESADAATYYCQQGYASSGVDNVFGGGTEVVVK
# notes: rabbit monoclonal antibody; also called P013.A.00086.B09
# B5: P013.S.02.B.F05 (antibody, V domains shown)
# VH: RSLEESGGDLVKPGTSLTLTCTASGFSFSGNYYMCWVRQAPGKGLEWIACIVVGSGGNTYYAGWAKRRFTISKTSSTTVTLQMTSLTAADTATYFCASGSYDDYGDYWYFTLWGQGTLVTVSS
# VL: AIDMTQTPSPASAGVGDTVTINCQASENIYNFLAWYQQKPGHSPKLLIYVASKLASGVPSRFKGSGSGTQFTLTISDVQSDDAATYYCQQTYRYNDGDTAFGGGTEVVVK
# notes: rabbit monoclonal antibody; also called P013.A.00109.B04
# B6: P013.S.01.B.E05 (antibody, V domains shown)
# VH: QSLEESGGDLVKPGASLTLTCTASGISFSSSDFMCWVRQAPGKGLEWIACIYAGSSVSIYYATWAKGRFTISKASSTTVTLQMASLTVADTATYFCARSTGSVGRGFNLWGQGTLVTVSS
# VL: AQVLTQTPSPVSAAVGGTVTISCQASQSVYNSNHLSWYQQKPGQPPRLLIYSASTLASGVPSRFKGSGSGTQFTLTISGVQSDDAATYYCQGEFSCVSADCIAFGGGTEVVVK
# notes: rabbit monoclonal antibody; also called P013.A.00086.F02
# B7: P013.S.01.B.F06 (antibody, V domains shown)
# VH: QSVEESGGRLVTPGTPLTLTCTVSGIDLSSDAVGWVRQAPGKGLEYIGIIVSSGETFYASWARGRCTISKTSSTTVDLRITRLTTEDTATYFCARGGPGYSFDTEYAFDPWGPGTLVTVSS
# VL: AFEMTQTPASVEVAVGGTVTINCQASQSIGSWLSWYQQKVGQRPKLLISRASTLASGVPSRFKGSGSGTEYTLTISGVQSDDAATFYCQQGATTYDVDNVFGGGTEVVVR
# notes: rabbit monoclonal antibody; also called P013.A.00045.E09
# B8: P013.S.02.B.H04 (antibody, V domains shown)
# VH: QSVEESGGRLVKPDETLTLTCTVSGIDLSSYAMGWVRQAPGKGLEYIGIISSSGRTYYANWAKGRFTISKASSTTVDLKITSPTTEDTATYFCARLITVDYYIYDYFNLWGQGTLVTVSS
# VL: AYDMTQTPASVEAAVGGTVTIKCQASQSISSYLSWYQQKPGQPPKLLIYGASTLASGVPSRFKGSGSGTEYTLTISGVESDDAATYYCQQGYSYNNVDNTFGGGTEVVVK
# notes: rabbit monoclonal antibody; also called P013.A.00029.F11
# B9: P013.S.01.B.A02 (antibody, V domains shown)
# VH: QSVEESGGRLVTPGTPLTLTCTVSGIDLSSYAMGWVRQAPGKGLEYIGVITSSATTYYASWAKGRFTISKTSSTTVDLRVTSLTTEDTATYFCARGGPGYSTNTHYAFDPWGPGTLVTVSS
# VL: AFEMTQTPSSVSEPVGGTVTIKCQASQSIYIYLSWYQQKPGQRPKLLIYDASKLASGVPSRFSGSGSGTEFTLTISGVQSDDAATYYCQQGATTYNVDNVFGGGTEVVVK
# notes: rabbit monoclonal antibody; also called P013.A.00003.H11
# Target: T1, mIL1RAcP-Fc
# Test: ELISA, primary supernatant, coated mu-IL-1RAcP-Fc
row,mu-IL1RaP ELISA (OD),Binder
1,2.3,B1
2,3.5,B2
3,3.4,B3
4,3.3,B4
5,0.4,B5
6,-0.1,B6
7,3.4,B7
8,1.7,B8
9,1.2,B9

# Target: T1, mIL1RAcP-Fc
# Test: ELISA, recombinant purified mAb
row,EC50 [µg/mL],Binder
1,0.332,B1
2,0.385,B2
3,0.082,B3
4,0.206,B4
5,0.044,B5
6,0.028,B7
7,0.644,B8
8,0.025,B9

# Target: T2, rhIL-1RAcP/Fc Chimera
# Test: ELISA, recombinant purified mAb
row,EC50 [µg/mL],Binder
1,0.032,B1
2,0.493,B3
3,0.966,B6
4,0.039,B7
5,0.042,B9

# Target: T3, human IL-1RAcP on 293T/17-FR cells
# Test: cell-based or functional assay
"functional reporter gene assay (% inhibition), 0.04 µg/mL mAb [%]","functional reporter gene assay (% inhibition), 0.2 µg/mL mAb [%]","functional reporter gene assay (% inhibition), 1 µg/mL mAb [%]","functional reporter gene assay (% inhibition), 5 µg/mL mAb [%]","primary supernatant functional assay (% inh.), NF-kB luciferase reporter [%]",Binder
54,77,84,90,83,B1
11,9,8,-6,-37,B2
-2,0,5,0,-39,B3
1,19,20,13,42,B4
15,5,11,-2,40,B5
26,61,81,93,98,B6
41,52,68,70,75,B7
7,-6,15,4,52,B8
46,94,95,98,92,B9

# Target: T2, rhIL-1RAcP/Fc Chimera
# Test: ELISA, primary supernatant, coated hu-IL-1RAcP-Fc
# Procedure, shortened: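 Plates coated with 0.5 μg/mL Fc-tagged human IL-1RAcP; rabbit B-cell supernatant antibodies detected by peroxidase anti-rabbit IgG Fab2 and TMB, absorbance 450/620 nm. Parallel IL12Rβ1-Fc coating served as counterscreen to exclude tag binders.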
row,hu-IL1RaP ELISA (OD),Binder
1,3.2,B1
2,3.6,B2
3,3.6,B3
4,3.2,B4
5,0.1,B5
6,3.6,B6
7,2.8,B7
8,3.2,B8
9,3.5,B9
